According to paper PMC3410656 (Nature structural & molecular biology, 2011):

Target: blocked SNARE[change] (SNARE[change] with CPXcen residues 48-134 pre-bound) ( | rat | human, UniProt P63027;P32851;P60880-2;O14810)
Assay: ITC

B1: wild-type complexin fragment wtCPX (hCPX1 residues 26-83) (domain or fragment)
chain: KDPDAAKKEEERQEALRQAEEERKAKYAKMEAEREAVRQGIRDKYGIKKKEEREAEAQ
B1 showed a Kd of roughly 10 µM.
